From paper PMC7910423

Target: CMP-Pse5Ac7Ac synthetase PseF from Aeromonas caviae (Aeromonas caviae)
Experiment: SEC-MALS; 100 uL of AcPseF at 4 mg/mL on a Superdex S200 column in 20 mM Tris pH 7.8, 50 mM NaCl, 2 mM MgCl2; Wyatt HELEOS-II light scattering and rEX refractive index detectors; BSA as standard

- percent present as homodimer: > 99%
- stoichiometry N: 2
Substance: CMP-Pse5Ac7Ac synthetase PseF from Aeromonas caviae (enzyme)
